The numbers were not newly measured in patent US20100209353A1, “TUMOR TARGETING PROTEIN CONJUGATE AND A METHOD FOR PREPARING THE SAME” (KOREA INSTITUTE OF SCIENCE AND TECHNOLOGY, priority 2009, published 2010), which cites them from elsewhere.

The conditions of this data set: conventional albumin.

Take albumin: the particle size is reported as 2˜5 nm.
